Measured values from patent publication US20260116982A1.

Molecular target: CD1a antigen on CD1a+ T-ALL cells (Jurkat, MOLT4, primary cortical T-ALL blasts) and cortical thymocytes (human) (UniProt P06126)
Experiment: cell-based or functional assay

specific cell lysis of CD1a+ T-ALL cell lines (Jurkat, MOLT4), 16 h assay, E:T 2:1 or 4:1: 50 to 80%
Substance: CD1a CAR (second-generation chimeric antigen receptor with the anti-CD1a scFv derived from clone NA1/34.HLK, CD8 TM spacer, 4-1BB (CD137) and CD3ζ signaling domains), expressed on T cells
